Experimental data taken from patent US20240150443A1, “[…] MEASLES VIRUS” (The Trustees of Columbia University in the City of New York, priority 2021, published 2024).

T1: MeV IC323 F (pre-fusion, on transfected HEK293T cells) (Measles virus strain IC323, UniProt Q786F3 24-550)
T1 construct: whole, on cells; also called pCAGGS-MeV IC323 F; MeV F
T1 sequence: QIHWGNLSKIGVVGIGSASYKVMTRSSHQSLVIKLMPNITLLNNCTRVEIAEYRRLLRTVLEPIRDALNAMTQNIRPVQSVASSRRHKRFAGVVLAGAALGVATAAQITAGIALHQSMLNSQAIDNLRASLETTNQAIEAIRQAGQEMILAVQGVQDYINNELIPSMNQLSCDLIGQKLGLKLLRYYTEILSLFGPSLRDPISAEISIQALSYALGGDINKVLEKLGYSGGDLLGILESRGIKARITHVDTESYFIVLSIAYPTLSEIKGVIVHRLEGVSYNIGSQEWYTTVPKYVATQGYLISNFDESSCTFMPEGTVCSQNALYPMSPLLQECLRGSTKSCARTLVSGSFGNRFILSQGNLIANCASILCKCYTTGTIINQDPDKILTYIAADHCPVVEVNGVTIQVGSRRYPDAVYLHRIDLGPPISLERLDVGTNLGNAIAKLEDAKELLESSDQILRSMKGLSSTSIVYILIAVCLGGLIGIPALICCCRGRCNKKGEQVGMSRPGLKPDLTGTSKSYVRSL

B1: single-chain variable fragment (scFv) derived from anti-MeV F mAb 77.4 (scFv)
scFv: MDVQLQESGPGLVKPSQSLSLTCTVSGYSITSDYAWNWIRQFPGNKLEWMGYISYTLTTGYNPSLKSRISITRDSSKNQFFLQLNSVTTEDTATYYCARSGWLLPYWYFDVWGAGTTVTVSSGGGGSGGGSGGGGSDVQITQSPSYLAASPGETITINCRASKSISKYLAWYQEKPGKTNELLIYSGSTLQSGIPSRFRGSGSGTDFTLTISSLEPEDFAMYYCQQHNEYTLTFGGGTKLELKRHHHHHH
notes: also called mAb 77.4-derived scFv
B2: scFv: single-chain fragment made by fusing VH and VL of mAb 77.4 via G4S linker, 6x-histidine tag; SEQ ID NO:3 (protein)
scFv: B1 scFv
modifications: 6x His tag; single-chain variable fragment antibody

Tests used:
[1] = biological target: T1, MeV IC323 F (pre-fusion, on transfected …); test: immunofluorescence of transfected HEK293T cells, Alexa 488 anti 6-histidine antibody
MeV WTFb = test: In vivo prophylaxis against MeV infection in cotton rats (scFv, intranasal); set-up: species or system cotton rats (Sigmodon hispidus)
Protocol: To assess anti-MeV prophylaxis by the scFv in vivo, we used cotton rats (CR) as an infection model. The scFv antibody construct was administrated via intranasal delivery 24 and 12 h before infection. Four days after infection, the animals were euthanized, and the viral titers in the animals' lungs were quantified.
Cotton rats were infected intranasally with 10^5 TCID50/ml of MeV WTFb. Animals received either the indicated amount of mAb 77.4-derived scFv construct (n=4) or vehicle (n=8) 24 h and 12 h prior to infection. Animals were euthanized 5 days after infection. Lungs were collected and homogenized for TCID50 titration. Results are presented as TCID50/g of lung. Statistical analyses were performed using the Mann-Whitney U-test.
In vivo experiments: Cotton rats. Inbred cotton rats (Sigmodon hispidus) were purchased from Envigo, Inc., Indianapolis. Both male and female cotton rats aged 5 to 7 weeks were used. For infection, 10^5 TCID50 of MeV (strain WTFb) was inoculated intranasally to isofluorane-anesthetised cotton rats in a volume of 100 μl. Treatment was performed in the same way at the indicated time points. Four days after infection, the animals were euthanized using CO2 inhalation, and their lungs were collected and weighed. Lung tissue was minced with scissors and homogenized with a glass dounce homogenizer. Vero-SLAM cells were inoculated with serial 10-fold dilutions of supernatant fluids to assess the presence of infectious virus in 48-well plates using cytopathic effect (CPE) as an endpoint. Plates were scored for CPE microscopically after 7 days, and the TCID50 was calculated as described previously^43.

[2] = biological target: MeV IC323 H/F fusion complex (Measles virus, UniProt Q786F3); conditions: SLAM-bearing HEK293T target cells, 6 h
Protocol: (§1) To assess the specificity of the scFV derived from mAb 77.4 for MeV F, cells expressing either MeV IC323 F or the human parainfluenza virus 3 fusion protein (HPIV3 F) were incubated with the scFv and subjected to immunofluorescence using a fluorescently-labeled Alexa 488 anti 6-histidine antibody (FIG. 3E-F). […] Finally, we assessed whether the scFv blocked cell-cell fusion mediated by either MeV IC323 or G954 H/F fusion complexes (FIG. 3G). For this experiment we used a beta-galactosidase (β-Gal) complementation assay^18 that measures the fusion of cells that express viral envelope glycoproteins (MeV IC323 or G954 H/F) with cells that express the MeV receptor SLAM (FIG. 3G). HEK293T (“target cells”) were transiently transfected with SLAM and the omega reporter subunit of beta-galactosidase, and incubated for the indicated time period in the presence of different concentrations of inhibitors with “effector cells” co-expressing MeV G954 or IC323 H and F together with the alpha reporter subunit of beta-galactosidase. Fusion between the target and effector cells leads to reconstitution of beta-galactosidase activity, which we quantified using the luminescence-based Galacto-Star™ β-Galactosidase Reporter Gene kit (ThermoFisher, US).
(§2) (A) Sequence of the single-chain variable fragment antibody derived from anti-MeV F mAb 77.4. […] Images were obtained using epifluorescent microscopy 48 h post-infection (scale bar=200 μm). (C) HEK293T cells were transfected with either pCAGGS-HPIV3 F or MeV IC323 F and stained using scFv 24 h post-transfection (scale bar=200 μm). (D) Fusion of MeV G954 or IC323 H/F co-expressing cells with SLAM-bearing cells in the presence of scFv at indicated concentrations was quantified at 6 h using a β-galactosidase complementation assay.

[3] = biological target: human parainfluenza virus 3 fusion protein (HPIV3 F) (Human parainfluenza 3 virus, UniProt P06828); conditions: HEK293T, 24 h post-transfection
Protocol: as §1, §2

[4] = biological target: MeV G954 H/F fusion complex (Measles virus, UniProt Q786F3, H419R/Q139R/R70K); conditions: SLAM-bearing HEK293T target cells, 6 h
Protocol: as §1, §2

MeV IC323-EGFP = test: Viral spread / plaque enlargement assay in Vero-SLAM cells; type: cell-based, measles virus (MeV)
Protocol: In an effort to identify a more broadly reactive mAb, the neutralizing activity of two other previously identified mAbs, mAb 77.4 and mAb Y503, was assessed in the experiments shown in FIG. 1 I-K. Vero cells expressing the measles receptor SLAM (Vero-SLAM) were infected with MeV IC323-EGFP virus (the expression of fluorescent protein permits tracking of the spread of infection). Six hours post-infection, the cells were treated with serial dilutions of mAbs 77.4 or Y503.
(H-K) VeroSLAM cells were infected with MeV IC323-EGFP at a multiplicity of infection (MOI)=0.001. […] (K) MeV infection in Vero-SLAM cells either untreated (NT) or treated at the indicated dilution of supernatant fluids from hybridomas producing anti F-mAb 77.4 or mAb Y503 were quantified using fluorescent spectroscopy. Data are expressed as relative fluorescence units (RFUs).
The scFv was expressed in eukaryotic cells and purified by affinity purification using a 6×-hisitidine tag (see Materials and Methods). Vero-SLAM cells were infected with MeV IC323-EGFP virus and six hours post-infection, the cells were treated with serial dilutions of the scFv (62.5 μg/ml and 1.95 μg/ml are shown in 3C and CD) and immunofluorescent syncytium formation was measured to quantify viral spread 48 hours post-infection.
Plaque enlargement assay. […] Quantification was determined using fluorescent spectroscopy.

Molecule	binding result [1]	lung infection (MeV WTFb; 0.5 mg/ml intranasal 24 and 12 h before infection)	lung infection (MeV WTFb; 1 mg/ml intranasal 24 and 12 h before infection)	viral titers in the lungs compared with untreated controls (MeV WTFb; intranasal 24 and 12 h before infection, doses 0.25, 0.5 and 1 mg/ml)	inhibition of cell fusion mediated by IC323 H/F [2]	recognition of cells expressing HPIV3 F by scFv [3]	inhibition of cell fusion mediated by G954 H/F [4]	inhibition of viral infection (syncytium formation) (MeV IC323-EGFP; Vero-SLAM, serial dilutions of scFv, 48 hours post-infection)	in vitro potency compared with the full antibody (mAb 77.4) (MeV IC323-EGFP; general statement, assay not specified)
B1	binds								
B2		completely inhibited lung infection	completely inhibited lung infection	significantly reduced viral titers in the lungs	inhibited cell fusion	not those expressing HPIV3 F	inhibited cell fusion	clearly inhibited viral infection	less than that of the full antibody
